Test [1] has as its target Kip3_(448) K257A-R262A (yeast). The experiment in a line: BLI. For orientation: In BLI a coated tip is dipped into the sample, and binding shifts an interference pattern.
The target of test [2] is Kip3_(448)^R351A-R353A (yeast). Kind of test: BLI.
Test [3] addresses tubulin purified from bovine brains (αβ-tubulin heterodimer) (bovine).

Turning to “tubulin purified from bovine brains (αβ-tubulin heterodimer) (complex)”, in test [1], the fold weaker affinity (increased Kd) relative to wild-type Kip3 (448) is 10 fold. In addition, the fold lower affinity (against Kip3 (448)) in test [2] came out at 1.8 fold.

B1: Kip3FL^K257A-R262A (natural protein)
chain: MNVPETRQSSIVVAIRVRPFTSMEKTRLVNEASGAEANFPGLGDSSLILPMSNNSDSDIDIDAEEGSTRSKRNSLLRRKVIRPEGIRKIVDCVDDRMLIFDPADRNPLNKVSDQVLNSMRARATKATASSINNSNATNKFSSQRRRHGGEIKFVFDKLFDETSSQARVYKETTSPLLDSVLDGFNSTVFAYGATGCGKTYTVSGTPSQPGIIFLAMEELFNKITDLKDEKDFEISLSYLEIYNERIRDLLKPETPSARLVIAEDTQNHIKVANLSYHHPNTVEDVMDLVVQGNINRTTSPTEANEVSSRSHAVLQIHIMQTNKLVDLTSQHTFATLSIIDLAGSERAAATRNRGIRLHEGANINRSLLALGNCINALCLNDGSRSCHIPYRDSKLTRLLKFSLGGNCKTVMIVCISPSSSHYDETLNTLKYANRAKEIKTKIIRNQQSLSRHVGSYLKMITEQKRQIEELREREEKMISLKLTKYKLNKEKIQLAINECVNRVQQTYAGVETYQVAKTLKSLILCKRRFLQMVKLEVDNLILLFEREESTAAEMQPVISNCRMISGQLYNKIHELEMKFDETDTLSSVIHQVHSIDLNKLREMEDWDETYDLVYLESCLNQISELQRNEILVNSSIMTEKLMSDPGLNSRFKFLSKWLMNRTPNIESIIQDLVHIDEEFESFARTFIANPDSNFTNTNINIINTTAADLAVPAETLQRQNFSQKKVKWTSPDLSPSPMIEPQPELEPELHQDQDAIASEVDVSMQDTTFNEQGPSTPSAPTTAVPRRKMRSSLLTHQSLLATARK
modifications: TMR (HALO-TMR ligand) on the HALO tag
Turning to B1, the plus-end dwell time on microtubules, against wild type in test [3] came out at 2 fold.

The record behind these values is publication doi:10.1101/2021.10.12.464151.
